Measured values: paper PMC2567903

Tests used:
[1] = target: N-WASPC in complex with Alexa647-labeled EspFU R′5 (UniProt O08816); assay: SEC
EspFU R′5 = EspFU R′5 (UniProt P0DJ88); assay: ITC
EspFU R′1-5 = EspFU R′1-5 (UniProt P0DJ88); assay: ITC
EspFU R′4-5 = EspFU R′4-5 (UniProt P0DJ88); assay: ITC
Chain of EspFU R′4-5 (P0DJ88 221-314): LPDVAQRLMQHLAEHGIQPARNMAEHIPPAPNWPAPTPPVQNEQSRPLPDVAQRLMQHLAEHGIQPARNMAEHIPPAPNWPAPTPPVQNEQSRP

Chain of WASP GBD (residues 242–310) (P42768 242-310): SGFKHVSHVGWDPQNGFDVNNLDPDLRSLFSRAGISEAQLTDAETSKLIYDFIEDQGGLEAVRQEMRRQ
Chain of EspFU R′5 (P0DJ88 221-267): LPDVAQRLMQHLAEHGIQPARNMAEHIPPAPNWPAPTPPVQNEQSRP
Chain of EspFU R′1-5 (P0DJ88 80-314): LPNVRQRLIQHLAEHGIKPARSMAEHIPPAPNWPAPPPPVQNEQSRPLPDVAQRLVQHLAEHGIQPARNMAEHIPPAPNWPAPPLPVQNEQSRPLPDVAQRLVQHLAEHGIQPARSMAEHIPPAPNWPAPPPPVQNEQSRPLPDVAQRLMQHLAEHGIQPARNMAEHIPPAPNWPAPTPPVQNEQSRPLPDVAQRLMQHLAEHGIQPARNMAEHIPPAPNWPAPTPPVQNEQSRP
Chain of N-WASPC in complex with Alexa647-labeled EspFU R′5 (O08816 193-501, chain 1 of 2): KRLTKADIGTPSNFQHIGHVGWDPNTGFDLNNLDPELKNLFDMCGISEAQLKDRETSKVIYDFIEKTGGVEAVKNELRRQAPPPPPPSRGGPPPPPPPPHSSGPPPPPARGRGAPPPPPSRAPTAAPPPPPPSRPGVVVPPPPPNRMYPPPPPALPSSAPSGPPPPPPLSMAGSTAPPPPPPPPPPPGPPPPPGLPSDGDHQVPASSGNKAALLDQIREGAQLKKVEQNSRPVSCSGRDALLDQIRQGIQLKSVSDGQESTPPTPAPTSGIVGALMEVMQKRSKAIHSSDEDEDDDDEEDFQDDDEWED
Chain of N-WASPC in complex with Alexa647-labeled EspFU R′5 (P0DJ88 221-267, chain 2 of 2, further chain): as the sequence (P0DJ88 221-267) above

For Arp2/3 complex, the percent of the EspFU shifted into the EspFU-N-WASP-Arp2/3 complex [1] was 60%.

“WASP GBD (residues 242–310) (from UniProt P42768 242-310) (domain or fragment)” gave a Kd (EspFU R′5) of 89 nM, a stoichiometry N (EspFU R′5) of 1 and a Kd (EspFU R′1-5) of 83 nM. For the same substance, the stoichiometry N (EspFU R′1-5) was 5.7, the Kd (EspFU R′4-5) was 95 nM and the stoichiometry N (EspFU R′4-5) was 1.8.
